# Results: PMC5290284, “Portal protein functions akin to a DNA-sensor that couples genome-packaging to icosahedral capsid maturation” (Nature Communications, 2017)
# B1: P22 PC-portal protein core (res. 1–602), procapsid conformation (domain or fragment, bacteriophage P22, UniProt P26744 1-602, looked up)
# chain: MADNENRLESILSRFDADWTASDEARREAKNDLFFSRVSQWDDWLSQYTTLQYRGQFDVVRPVVRKLVSEMRQNPIDVLYRPKDGARPDAADVLMGMYRTDMRHNTAKIAVNIAVREQIEAGVGAWRLVTDYEDQSPTSNNQVIRREPIHSACSHVIWDSNSKLMDKSDARHCTVIHSMSQNGWEDFAEKYDLDADDIPSFQNPNDWVFPWLTQDTIQIAEFYEVVEKKETAFIYQDPVTGEPVSYFKRDIKDVIDDLADSGFIKIAERQIKRRRVYKSIITCTAVLKDKQLIAGEHIPIVPVFGEWGFVEDKEVYEGVVRLTKDGQRLRNMIMSFNADIVARTPKKKPFFWPEQIAGFEHMYDGNDDYPYYLLNRTDENSGDLPTQPLAYYENPEVPQANAYMLEAATSAVKEVATLGVDTEAVNGGQVAFDTVNQLNMRADLETYVFQDNLATAMRRDGEIYQSIVNDIYDVPRNVTITLEDGSEKDVQLMAEVVDLATGEKQVLNDIRGRYECYTDVGPSFQSMKQQNRAEILELLGKTPQGTPEYQLLLLQYFTLLDGKGVEMMRDYANKQLIQMGVKKPETPEEQQWLVEAQQAKQG
# notes: Portal protein (gp1) of bacteriophage P22, core, residues 1–602; Asymmetric dodecamer; also called PC-portal core; portal-602; copies: 12
# B2: P22 tail factor gp4 (natural protein, bacteriophage P22, UniProt P26746 1-166, looked up)
# chain: MQIKTKGDLVRAALRKLGVASDATLTDVEPQSMQDAVDDLEAMMAEWYQDGKGIITGYVFSDDENPPAEGDDHGLRSSAVSAVFHNLACRIAPDYALEATAKIIATAKYGKELLYKQTAISRAKRAPYPSRMPTGSGNSFANLNEWHYFPGEQNADSTTPHDEGNG
# notes: Tail factor gp4 of bacteriophage P22; source: E. coli BL21 (DE3), purified (Ni-agarose, Superdex 75)
# What was measured:
# [1] = target: the molecule itself; experiment: crystal structure; PC-portal core at 10 mg/ml, 5% PEG 8,000, 10 mM caesium chloride, pH 5.6, 22 °C; 3.30 Å; whole dodecamer in the asymmetric unit
# [2] = target: T1, P22 PC-portal rings coupled to CNBr-activated Sepharose beads (bacteriophage P22, UniProt P26744 1-725); experiment: pull-down; PC- or MV-portal rings immobilized on CNBr-activated Sepharose 4B beads; soluble protein added (L-terminase pre-complexed with non-hydrolyzable ATP); bound and unbound fractions on SDS–PAGE; settings: both partners purified
# T1 construct: Portal protein (gp1) of bacteriophage P22; Procapsid conformation; also called PC-portal protein; PC-portal beads; source: E. coli BL21 (DE3), purified (Ni-NTA, Superose 6); copies: 12
# T1 sequence (looked up): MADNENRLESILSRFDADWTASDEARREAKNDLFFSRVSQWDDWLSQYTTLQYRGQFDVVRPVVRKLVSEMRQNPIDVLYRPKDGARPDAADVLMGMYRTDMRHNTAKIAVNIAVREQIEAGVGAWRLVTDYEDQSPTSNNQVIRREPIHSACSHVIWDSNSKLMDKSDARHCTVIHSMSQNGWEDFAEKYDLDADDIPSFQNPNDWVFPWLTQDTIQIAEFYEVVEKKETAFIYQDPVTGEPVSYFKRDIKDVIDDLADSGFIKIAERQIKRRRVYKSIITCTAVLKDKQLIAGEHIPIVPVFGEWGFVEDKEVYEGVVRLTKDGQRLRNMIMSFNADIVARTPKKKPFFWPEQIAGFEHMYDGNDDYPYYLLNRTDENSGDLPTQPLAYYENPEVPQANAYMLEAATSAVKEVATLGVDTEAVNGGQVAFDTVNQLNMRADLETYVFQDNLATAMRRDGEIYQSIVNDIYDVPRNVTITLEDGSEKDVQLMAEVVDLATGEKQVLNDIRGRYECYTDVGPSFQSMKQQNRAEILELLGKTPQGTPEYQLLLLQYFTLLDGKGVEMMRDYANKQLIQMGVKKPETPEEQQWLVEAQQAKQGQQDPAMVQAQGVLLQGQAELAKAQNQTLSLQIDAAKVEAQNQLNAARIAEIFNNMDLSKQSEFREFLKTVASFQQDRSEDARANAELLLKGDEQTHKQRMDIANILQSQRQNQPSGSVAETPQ
# [3] = target: T2, P22 MV-portal rings coupled to CNBr-activated Sepharose beads (bacteriophage P22, UniProt P26744 1-725); experiment: as above; settings: both partners purified
# T2 construct: Portal protein (gp1) of bacteriophage P22; Mature virion conformation; also called MV-portal protein; MV-portal beads; source: E. coli BL21 (DE3), purified (Ni-agarose, Superose 12); copies: 12
# T2 sequence (looked up): T1 sequence (looked up)
Binder,stoichiometry N [1] [protomers],stoichiometry N [2] [gp4 equivalents],stoichiometry N [3] [gp4 equivalents]
B1,12,,
B2,,11.4 ± 1,11 ± 1
